Source: US20230340151A1 (Pfizer, published 2023)
Read-outs that look alike come from different tables or passages of the source. Each block holds one binder with its values, some of them ahead of it.

How the values were obtained:
[1] = biological target: T1, GUCY2C_ECD Peptide 19 (human); assay: co-crystal structure, 1.6 A
T1 construct: also called GUCY2c peptide 19; GUCY2c-ECD peptide number 19
T1 peptide: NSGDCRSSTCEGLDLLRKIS

[2] = biological target: T2, Cynomolgus GUCY2C-ECD Cleaved (cynomolgus, UniProt P25092 24-430 (human entry)); assay: direct DELFIA, RT
T2 construct: also called CyGUCY2C
T2 chain: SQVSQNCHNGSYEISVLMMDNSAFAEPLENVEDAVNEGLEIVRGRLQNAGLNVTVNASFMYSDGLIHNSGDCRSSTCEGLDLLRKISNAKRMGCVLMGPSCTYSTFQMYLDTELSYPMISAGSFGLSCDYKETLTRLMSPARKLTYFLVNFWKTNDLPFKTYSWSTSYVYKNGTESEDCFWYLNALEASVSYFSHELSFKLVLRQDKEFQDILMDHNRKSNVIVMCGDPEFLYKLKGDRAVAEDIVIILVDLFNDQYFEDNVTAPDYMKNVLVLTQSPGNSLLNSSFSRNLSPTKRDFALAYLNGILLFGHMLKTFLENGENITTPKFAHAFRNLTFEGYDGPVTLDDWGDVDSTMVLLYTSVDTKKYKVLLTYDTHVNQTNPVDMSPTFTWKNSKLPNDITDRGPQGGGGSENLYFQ

[3] = biological target: T3, Human GUCY2C ECD Cleaved (human, UniProt P25092 24-430); assay: direct DELFIA, RT
T3 construct: also called human GUCY2c extracellular domain protein (ECD)
T3 sequence (P25092 other isoform, or with tags, fused parts or gaps): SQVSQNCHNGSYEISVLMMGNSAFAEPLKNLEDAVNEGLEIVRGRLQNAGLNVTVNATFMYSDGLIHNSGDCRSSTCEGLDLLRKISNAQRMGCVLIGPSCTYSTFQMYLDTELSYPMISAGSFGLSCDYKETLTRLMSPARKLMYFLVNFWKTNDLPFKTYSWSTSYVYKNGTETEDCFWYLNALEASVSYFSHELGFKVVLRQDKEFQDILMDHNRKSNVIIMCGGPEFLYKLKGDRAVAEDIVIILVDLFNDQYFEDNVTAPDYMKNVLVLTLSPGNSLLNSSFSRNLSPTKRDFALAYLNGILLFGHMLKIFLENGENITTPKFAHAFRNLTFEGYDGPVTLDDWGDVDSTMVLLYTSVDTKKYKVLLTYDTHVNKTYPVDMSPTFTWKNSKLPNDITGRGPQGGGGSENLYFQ

[4] = biological target: T4, Human GUCY2c on tumor cells (T84, HT55) (human, UniProt P25092 24-1073); assay: cell-based or functional assay
T4 sequence (P25092 24-1073 limits assumed): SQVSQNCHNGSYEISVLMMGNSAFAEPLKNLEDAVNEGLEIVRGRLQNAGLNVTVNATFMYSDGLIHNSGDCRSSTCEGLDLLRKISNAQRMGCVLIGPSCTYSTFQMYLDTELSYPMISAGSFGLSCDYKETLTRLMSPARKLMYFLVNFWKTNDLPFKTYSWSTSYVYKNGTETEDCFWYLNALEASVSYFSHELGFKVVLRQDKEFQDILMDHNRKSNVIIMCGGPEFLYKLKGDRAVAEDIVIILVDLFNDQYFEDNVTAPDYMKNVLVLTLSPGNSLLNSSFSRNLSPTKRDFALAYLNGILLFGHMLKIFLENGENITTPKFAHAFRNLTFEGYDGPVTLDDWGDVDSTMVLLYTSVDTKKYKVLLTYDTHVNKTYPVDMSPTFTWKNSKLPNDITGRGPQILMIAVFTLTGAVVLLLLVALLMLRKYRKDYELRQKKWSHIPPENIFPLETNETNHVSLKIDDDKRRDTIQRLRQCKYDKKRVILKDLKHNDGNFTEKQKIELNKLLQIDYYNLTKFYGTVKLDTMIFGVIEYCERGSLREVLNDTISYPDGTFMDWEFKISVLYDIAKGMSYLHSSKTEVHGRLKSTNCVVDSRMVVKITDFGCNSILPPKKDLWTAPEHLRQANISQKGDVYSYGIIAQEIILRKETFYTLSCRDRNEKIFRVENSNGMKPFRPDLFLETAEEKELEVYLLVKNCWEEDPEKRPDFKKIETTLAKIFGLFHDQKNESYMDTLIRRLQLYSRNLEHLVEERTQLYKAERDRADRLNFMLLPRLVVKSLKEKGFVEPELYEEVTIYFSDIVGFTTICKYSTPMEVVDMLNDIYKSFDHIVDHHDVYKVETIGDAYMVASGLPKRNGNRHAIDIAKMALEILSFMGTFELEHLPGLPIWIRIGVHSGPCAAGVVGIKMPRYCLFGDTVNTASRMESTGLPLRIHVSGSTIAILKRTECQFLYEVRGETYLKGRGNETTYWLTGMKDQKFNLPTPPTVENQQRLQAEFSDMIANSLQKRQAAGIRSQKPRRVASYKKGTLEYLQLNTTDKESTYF

[5] = biological target: T5, Human GUCY2C full length (SEQ ID NO: 224), recombinant protein (human, UniProt P25092 24-430, limits assumed); assay: SPR, anti-human IgG capture, 25 C
T5 construct: also called huGUCY2C; biotinylated human GUCY2c
T5 sequence (P25092 24-430 F281L limits assumed): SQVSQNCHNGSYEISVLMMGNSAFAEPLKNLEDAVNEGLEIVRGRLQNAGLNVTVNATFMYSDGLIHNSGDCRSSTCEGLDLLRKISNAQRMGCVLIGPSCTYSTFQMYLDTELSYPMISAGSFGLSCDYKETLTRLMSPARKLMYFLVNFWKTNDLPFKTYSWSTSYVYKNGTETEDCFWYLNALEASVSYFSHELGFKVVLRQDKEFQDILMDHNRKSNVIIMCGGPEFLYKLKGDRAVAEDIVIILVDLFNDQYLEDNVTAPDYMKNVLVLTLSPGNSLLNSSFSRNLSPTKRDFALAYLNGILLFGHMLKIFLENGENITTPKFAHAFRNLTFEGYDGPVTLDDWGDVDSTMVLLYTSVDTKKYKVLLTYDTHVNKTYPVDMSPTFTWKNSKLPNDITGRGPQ

[6] = biological target: T4, Human GUCY2c on tumor cells (T84, HT55); assay: cell-based or functional assay; remark: listed apart in the source
[7] = biological target: T2, Cynomolgus GUCY2C-ECD Cleaved; assay: direct DELFIA, 60 C
[8] = biological target: T3, Human GUCY2C ECD Cleaved; assay: direct DELFIA, 60 C
[9] = biological target: T6, Human CD3 epsilon-delta (human); assay: SPR, CD3 captured by anti-His, 25 C
T6 construct: Single-chain epsilon-linker-delta with His6; also called huCD3
T6 chain: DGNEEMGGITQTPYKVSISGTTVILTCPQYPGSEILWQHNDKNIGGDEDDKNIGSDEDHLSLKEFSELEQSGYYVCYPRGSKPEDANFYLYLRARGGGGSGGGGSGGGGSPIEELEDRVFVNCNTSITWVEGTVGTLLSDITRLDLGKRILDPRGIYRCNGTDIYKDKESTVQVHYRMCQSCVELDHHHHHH

[10] = biological target: T3, Human GUCY2C ECD Cleaved; assay: DELFIA ELISA on coated human GUCY2c
[11] = biological target: T3, Human GUCY2C ECD Cleaved; assay: SPR, human IgG1
[12] = biological target: T3, Human GUCY2C ECD Cleaved; assay: SPR, human IgG1 against human GUCY2c ECD

B2: GUCY2C-1478 (bispecific antibody)
chain 1: DIQLTQSPSSLSASVGDRVTITCRASESVDYYGSSLLQWYQQKPGKAPKLLIYAASKLASGVPSRFSGSGSGTDFTLTISSLQPEDFATYYCQQTRKAYTFGQGTKLEIKGGGSGGGGEVQLVESGGGLVQPGGSLRLSCAASGFTFSDYYMTWVRQAPGKGLEWVAFIRNQARGYTSDHNPSVKGRFTISRDNAKNSLYLQMNSLRAEDTAVYYCARDRPSYYVLDYWGQGTTVTVSSGCPPCPAPEAAGAPSVFLFPPKPKDTLMISRTPEVTCVVVDVSHEDPEVKFNWYVDGVEVHNAKTKPREEQYNSTYRVVSVLTVLHQDWLNGKEYKCKVSNKALPAPIEKTISKAKGQPREPQVCTLPPSREEMTKNQVSLWCLVKGFYPSDIAVEWESNGQPENNYKTTPPVLDSDGSFFLYSKLTVDKSRWQQGNVFSCSVMHEALHNHYTQKSLSLSPG
chain 2: DIQMTQSPSSLSASVGDRVTITCTSSQSLFNVRSQKNYLAWYQQKPGKAPKLLIYWASTRESGVPSRFSGSGSGTDFTLTISSLQPEDFATYYCKQSYDLFTFGGGTKVEIKGGGGSGGGGEVQLVESGGGLVQPGGSLRLSCAASGYTFTSYWMHWVRQAPGKGLEWIGEIKPSNGLTNVHEKFKNRFTISVDKAKNSAYLQMNSLRAEDTAVYYCTRTITTTEGYWFFDVWGQGTLVTVSSGCPPCPAPEAAGAPSVFLFPPKPKDTLMISRTPEVTCVVVDVSHEDPEVKFNWYVDGVEVHNAKTKPREEQYNSTYRVVSVLTVLHQDWLNGKEYKCKVSNKALPAPIEKTISKAKGQPREPQVYTLPPCREEMTKNQVSLSCAVKGFYPSDIAVEWESNGQPENNYKTTPPVLDSDGSFFLVSKLTVDKSRWQQGNVFSCSVMHEALHNHYTQKSLSLSPG
notes: CD3-0006
EC50 [2]: 4.9 nM | EC50 [3]: 4.39 nM | T84 tumor cell EC50 (T cell cytotoxicity, E:T 5:1) [4]: 0.24 nM | Kd [5]: 3.69 nM | koff [5]: 0.000434 s⁻¹ | kon [5]: 118000 M⁻¹ s⁻¹ | T84 tumor cell EC50 (T cell cytotoxicity, E:T 5:1) [6]: 0.24 nM | EC50 [7]: 15.7 nM | EC50 [8]: 19.2 nM | Kd [9]: 26.9 nM | koff [9]: 0.00956 s⁻¹ | kon [9]: 355000 M⁻¹ s⁻¹

B3: GUCY2C-0118, rabbit chimeric IgG version of GUCY2C-0098 (antibody)
heavy: QVQLQQPGAELVKPGASVKLSCKASGYTFTSYWMHWVKQRPGQGLEWIGEIKPSNGLTNYIEKFKNKATLTVDKSATTAYMQLSSLTAEDSAVYYCTRTITTTEGYWFFDVWGAGTTVTVSSGQPKAPSVFPLAPCCGDTPSSTVTLGCLVKGYLPEPVTVTWNSGTLTNGVRTFPSVRQSSGLYSLSSVVSVTSSSQPVTCNVAHPATNTKVDKTVAPSTCSKPTCPPPELLGGPSVFIFPPKPKDTLMISRTPEVTCVVVDVSQDDPEVQFTWYINNEQVRTARPPLREQQFNSTIRVVSTLPIAHQDWLRGKEFKCKVHNKALPAPIEKTISKARGQPLEPKVYTMGPPREELSSRSVSLTCMINGFYPSDISVEWEKNGKAEDNYKTTPAVLDSDGSYFLYSKLSVPTSEWQRGDVFTCSVMHEALHNHYTQKSISRSPGK
light: DIVLTQSPASLAVSLGQRATISCRASESVDYYGTSLMQWYQQKPGQPPKLLIYAASNVESGVPARFSGSGSGTDFSLNIHPVEEDDIAMYFCQQTRKVYTFGGGTKLEIKGDPVAPTVLIFPPAADQVATGTVTIVCVANKYFPDVTVTWEVDGTTQTTGIENSKTPQNSADCTYNLSSTLTLTSTQYNSHKEYTCRVTQGTTSVVQSFNRGDC
notes: also called Rabbit IgG version of clone 9H3
EC50 [10]: 0.25 µg/mL

The next lines start with the values.

binding result [1]: binds
B1: GUCY2C-1608 scFv (scFv)
scFv: EVQLVESGGGLVQPGGSLRLSCAASGFTFSSYWMHWVRQAPGKGLEWIGEIKPSNELTNVHEKFKDRFTISVDKAKNSAYLQMNSLRAEDTAVYYCTRTITTTEGYWFFDVWGQGTLVTVSSGGGGSGGGGSGGGGSGDIQLTQSPSSLSASVGDRVTITCRASESVDYYGSSLLQWYQQKPGKAPKLLIYAASKLASGVPSRFSGSGSGTDFTLTISSLQPEDFATYYCQQTRKAYTFGQGTKLEIKTGSENLYFQ

fold improvement of affinity against the parent antibody (GUCY2C-1640) [11]: 3.4 fold | Kd [12]: 4.07 nM | koff [12]: 0.0011 s⁻¹ | kon [12]: 272000 M⁻¹ s⁻¹
B4: GUCY2C-1715 (antibody, human IgG1, V domains shown)
VH: EVQLVESGGGLVQPGGSLRLSCAASGFTFSSYWMHWVRQAPGKGLEWIGEIKPSTKYTNVHEKFKDRFTISVDKAKNSAYLQMNSLRAEDTAVYYCTRTIFTNEGYWFFDVWGQGTLVTVSS
VL: DIQLTQSPSSLSASVGDRVTITCRASESVSIYGSSLMQWYQQKPGKAPKLLIYAASKLASGVPSRFSGSGSGTDFTLTISSLQPEDFATYYCQQTRKAYTFGQGTKLEIK
notes: full human IgG1/kappa
